According to US20180263964A1 (MINERVA BIOTECHNOLOGIES, published 2018):

What was measured:
full-length MUC1 [1] = molecular target: T1, full-length MUC1 (human, UniProt P15941 24-1255, limits assumed); experiment: co-immunoprecipitation with Ab5 from human iPS and HES cell lysates, Western blot for NME7
T1 construct: also called full-length MUC1 Receptor; Mucin 1 precursor

full-length MUC1 [2] = molecular target: T1, full-length MUC1; experiment: co-immunoprecipitation gel stripped and re-probed with an anti-MUC1* (PSMGFR) antibody

T1 sequence (P15941 other isoform, or with tags, fused parts or gaps limits assumed): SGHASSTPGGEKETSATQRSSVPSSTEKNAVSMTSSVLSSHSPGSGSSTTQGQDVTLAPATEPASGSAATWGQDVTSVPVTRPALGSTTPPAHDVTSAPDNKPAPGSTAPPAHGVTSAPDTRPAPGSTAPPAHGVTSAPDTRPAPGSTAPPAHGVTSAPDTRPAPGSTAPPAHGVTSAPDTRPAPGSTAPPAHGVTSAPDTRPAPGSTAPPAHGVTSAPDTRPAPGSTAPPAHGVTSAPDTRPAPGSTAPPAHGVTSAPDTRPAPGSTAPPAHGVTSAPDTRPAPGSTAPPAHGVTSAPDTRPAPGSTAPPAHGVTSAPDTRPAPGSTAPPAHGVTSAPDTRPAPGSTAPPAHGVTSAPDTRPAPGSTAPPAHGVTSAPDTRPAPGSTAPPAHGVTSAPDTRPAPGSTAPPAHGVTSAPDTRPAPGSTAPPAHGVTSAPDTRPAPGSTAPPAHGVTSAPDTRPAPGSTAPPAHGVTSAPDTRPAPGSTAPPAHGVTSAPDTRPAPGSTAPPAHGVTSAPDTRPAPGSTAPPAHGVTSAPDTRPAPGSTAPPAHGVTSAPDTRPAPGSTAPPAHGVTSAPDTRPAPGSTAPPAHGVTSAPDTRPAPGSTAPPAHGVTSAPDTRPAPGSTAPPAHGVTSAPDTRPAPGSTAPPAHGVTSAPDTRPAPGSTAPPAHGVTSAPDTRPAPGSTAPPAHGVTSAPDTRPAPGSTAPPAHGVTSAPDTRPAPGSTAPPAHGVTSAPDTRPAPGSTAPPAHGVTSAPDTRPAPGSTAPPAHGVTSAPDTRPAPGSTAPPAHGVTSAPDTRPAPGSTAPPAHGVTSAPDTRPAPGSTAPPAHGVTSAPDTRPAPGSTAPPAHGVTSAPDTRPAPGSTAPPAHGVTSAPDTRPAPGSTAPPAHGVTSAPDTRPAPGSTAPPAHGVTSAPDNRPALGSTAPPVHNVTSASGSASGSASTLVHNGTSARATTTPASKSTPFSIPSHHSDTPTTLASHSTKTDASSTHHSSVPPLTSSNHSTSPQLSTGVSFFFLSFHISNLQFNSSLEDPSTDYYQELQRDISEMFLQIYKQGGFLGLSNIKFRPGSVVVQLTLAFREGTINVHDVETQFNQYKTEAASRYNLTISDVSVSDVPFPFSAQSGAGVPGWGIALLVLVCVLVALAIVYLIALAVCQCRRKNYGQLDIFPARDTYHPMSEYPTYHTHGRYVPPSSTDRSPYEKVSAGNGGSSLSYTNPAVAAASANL

B1: full-length NME7, 42 kDa (other, UniProt Q9Y5B8 1-376, looked up)
chain: MNHSERFVFIAEWYDPNASLLRRYELLFYPGDGSVEMHDVKNHRTFLKRTKYDNLHLEDLFIGNKVNVFSRQLVLIDYGDQYTARQLGSRKEKTLALIKPDAISKAGEIIEIINKAGFTITKLKMMMLSRKEALDFHVDHQSRPFFNELIQFITTGPIIAMEILRDDAICEWKRLLGPANSGVARTDASESIRALFGTDGIRNAAHGPDSFASAAREMELFFPSSGGCGPANTAKFTNCTCCIVKPHAVSEGLLGKILMAIRDAGFEISAMQMFNMDRVNVEEFYEVYKGVVTEYHDMVTEMYSGPCVAMEIQQNNATKTFREFCGPADPEIARHLRPGTLRAIFGKTKIQNAVHCTDLPEDGLLEVQYFFKILDN
notes: Endogenous 42 kDa protein in cell lysates; also called native NME7
B1: no binding (full-length MUC1 [1]).

B2: NME7-X1 (ligand)
chain: MMMLSRKEALDFHVDHQSRPFFNELIQFITTGPIIAMEILRDDAICEWKRLLGPANSGVARTDASESIRALFGTDGIRNAAHGPDSFASAAREMELFFPSSGGCGPANTAKFTNCTCCIVKPHAVSEGLLGKILMAIRDAGFEISAMQMFNMDRVNVEEFYEVYKGVVTEYHDMVTEMYSGPCVAMEIQQNNATKTFREFCGPADPEIARHLRPGTLRAIFGKTKIQNAVHCTDLPEDGLLEVQYFFKILDN
notes: Alternative splice isoform of NME7; In the blots it is the endogenous 30 kDa species of cell lysates; also called human NME7-X1; 30 kDa NME7-reactive species
B2: no binding (full-length MUC1 [2]).

B3: NME7AB (ligand)
chain: MEKTLALIKPDAISKAGEIIEIINKAGFTITKLKMMMLSRKEALDFHVDHQSRPFFNELIQFITTGPIIAMEILRDDAICEWKRLLGPANSGVARTDASESIRALFGTDGIRNAAHGPDSFASAAREMELFFPSSGGCGPANTAKFTNCTCCIVKPHAVSEGLLGKILMAIRDAGFEISAMQMFNMDRVNVEEFYEVYKGVVTEYHDMVTEMYSGPCVAMEIQQNNATKTFREFCGPADPEIARHLRPGTLRAIFGKTKIQNAVHCTDLPEDGLLEVQYFFKILDN
notes: In the co-immunoprecipitations and Western blots this is the endogenous 33 kDa species of cell lysates; also called human NME7-AB; 33 kDa NME7-reactive species
B3: no binding (full-length MUC1 [2]).
